Source: paper PMC12747267 (bioRxiv, 2025)

Molecular target: the molecule itself
Assay: cryo-EM structure

B1: human myosin regulatory light chain (RLC, MYL12B) (natural protein, UniProt O14950 1-172, looked up)
chain: MSSKKAKTKTTKKRPQRATSNVFAMFDQSQIQEFKEAFNMIDQNRDGFIDKEDLHDMLASLGKNPTDAYLDAMMNEAPGPINFTMFLTMFGEKLNGTDPEDVIRNAFACFDEEATGTIQEDYLRELLTTMGDRFTDEEVDELYREAPIDKKGNFNYIEFTRILKHGAKDKDD
binding result: binds
